According to the supplement of paper PMC9170038:

Tested on: MS2 coat protein
Assay: apparent KD of MS2 coat protein; designed switch direction (-1 OFF switch, 1 ON switch): -1; higher = weaker reporter binding
Method in brief: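 Designed RNA switches sharing common flanks were transcribed on Illumina chips by stalled E. coli RNA polymerase. They were titrated with SNAP-549-labelled MS2 coat protein, from 0.7 or 1.5 nM doubling to 3 µM, in Tris-HCl pH 7.5 buffer with KCl, MgCl2, BSA, DTT, tRNA and Tween-20. Titrations ran without input, with 200 uM small-molecule ligand, or with an oligonucleotide input. The apparent KD of each design is the median over its clusters, after curve-fitting of normalised cluster fluorescence.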

[1] = Eterna round: R95, input ligand: FMN 200 uM
[2] = Eterna round: R95, input ligand: microRNA oligo, concentration not stated
[3] = Eterna round: R95, input ligand: none
[4] = input ligand: microRNA oligo, concentration not stated

Row | Sequence | apparent KD of MS2 coat protein (input ligand: FMN 200 uM) [nM] | apparent KD of MS2 coat protein (input ligand: none) [nM] | apparent KD of MS2 coat protein [1] [nM] | apparent KD of MS2 coat protein [2] [nM] | apparent KD of MS2 coat protein [3] [nM] | apparent KD of MS2 coat protein [4] [nM]
1 | CCUUGACAUGAGGAUCACCCAUGUGAGGAUAUAGAAUACAUCAUACACUGACCUCCUUCUAGAAGGCACAUCUC [1986#2] (Eterna round: R97, puzzle: Exclusion 1) | 14.1 | 15.3 | – | – | – | –
2 | CCCAGGGCAGGAUAUAGAGGGCGAAACAUGAGGAUCACCCAUGUGACCUCGGAACAGCUGCUAGAAGGGCCAAAUU [Beesquti] (puzzle: Exclusion 5) | – | – | 21.1 | 14.8 | 15.3 | –
3 | CACCUCGUAGCAGGAUAUUAGAGCUUCCGCAAAUGAGAAGGGCUACGAAACACUUGAGGAUCACCCAAGUACCGUGGUCCUCUA [Mutated MS2 EX1.11] (Eterna round: R96, puzzle: Exclusion NG 1) | 19.7 | 22.3 | – | – | – | 14
4 | CAUGAUCUUCGGAUCAUGUACAUGAGGAUCACCCAUGUUACGAGCAGAUUUUCAUACAAGCUUUUUGCUCGUCUUAU [Sensor v3 - Turn-off variant 1 - 31] (puzzle: Sensor v3, turn-off variant 1) | – | – | 27.6 | 67.3 | 28.7 | –
5 | CGCCGAGUGUUAGGAUAUCACAAGCAUAAGCGGUGAGAAGGAACAUGAGGAUCACCCAUGUACUGUCCCAUCGGGACAGGUUUC [Ribeon] (Eterna round: R96, puzzle: Exclusion NG 1) | 170 | 70.8 | – | – | – | 54
6 | CCGAGGUAGCGGUCCUAUGACAUGAGGAUCACCCAUGUACCUCGCUACGAGCUUUUUGCUCGUCAUAUAAUUCUCGG [Mat - Sensor v3 - turn-off var 1 - JL Mod - D30] (puzzle: Sensor v3, turn-off variant 1) | – | – | 45.4 | 57.9 | 66.3 | –
7 | GGAUCGAAUGUGAGGAUAUGCAGGUCCUUGGAUCUGCAGAAGGCACAUGAGGAUCACCCAUGUGAUCAAGAUCC [Mat - Exclusion 4 - Eli Mod - D48] (Eterna round: R97, puzzle: Brourd's mod of Exclusion 4) | 63 | 772 | – | – | – | –
8 | UUUUUCGAACAAGCAUCGAACAUGAGGAUCACCCAUGUAGGUAGAUUUGAGUAGGUAUGGAAGUAAGCUCGUCUUAU [JR_SV3TOV1_Sub080] (puzzle: Sensor v3, turn-off variant 1) | – | – | 39.4 | 107 | 53.9 | –
9 | GCUUGUAGAGGAUAUACGAGGGCCCGAGCGGCGAGAGCCGCACAUGAGGAUCACCCAUGUAGAAGGCUACUAUU [JL-ex2-4.19 ViennaUCT mod] (Eterna round: R97, puzzle: Exclusion 2) | 358 | 133 | – | – | – | –
10 | CCUAGUUGGUAAGGAUAUCCUACAUUAUUCUGACCCGUGCAAGCUACAUGAGGAUCACCCAUGUGGGAGAAGGUGCGUUAACGU [Design 8] (Eterna round: R96, puzzle: Exclusion NG 2) | 55.7 | 55.1 | – | – | – | 35.2
11 | ACAUGAGGAUCACCCAUGUGAACGAAAAGGCUCAUGUAGAGUGAGGAUAUGUGAGACGAACGAGAACAGAAGGCACAAGACAGG [Deportation 1 - Jieux - Exclusion NG 3] (Eterna round: R96, puzzle: Exclusion NG 3) | 20.7 | 35.4 | – | – | – | 19.5
12 | GUCUACCAGCUAGGAUAUGCAGUACAUUAAAAUGUAGAAGGAGCACGAUCCAGACAUGAGGAUCACCCAUGUGGGCGGUAGGCA [Aques] (Eterna round: R96, puzzle: Exclusion NG 1) | – | – | – | – | – | 15.6
13 | GGGUAGUGAGGAUAUACAUGAGGAUCACCCAUGUUUGCGACACUGGAGGCGUCUCUAUGUAGAAGGCGCGGCCG [EX3 B.16] (Eterna round: R97, puzzle: Exclusion 3) | 30.4 | 18.9 | – | – | – | –
14 | GGAAACCUACCGCGACAUGAGGAUCACCCAUGUGAUUGGUUUUAGGAUAUCUGGAGAAUCCAGACAGAGAAGGAGGGCCGUCGC [Eternabot solution 38] (Eterna round: R96, puzzle: Exclusion NG 3) | 77.5 | 45.1 | – | – | – | 28.5
15 | UUUUUAUAUGAAGGAUAUACUUAACAUGAGGAUCACCCAUGUGGUGUUGUGAGUGAGUGAGUUUAGUAGAAGGUCAAAUAUUUU [JMF's solution 7] (Eterna round: R96, puzzle: Exclusion NG 2) | 583 | 270 | – | – | – | 194
16 | AGGUCACAUGAGGAUCACCCAUGUGAGGAUAUAGACUCAAGAGCUUCGGCUCUCAAGUCUAGAAGGCGCUAUGA [EX1 #50] (Eterna round: R97, puzzle: Exclusion 1) | 26.5 | 28.5 | – | – | – | –
17 | GGUCUUCAAGUCAGGAUAUCGUCUAAUCGAUCUGGCGAGAAGGGACAUGAGGAUCACCCAUGUCGUCUCAUCAG [Ex4 #16] (Eterna round: R97, puzzle: Brourd's mod of Exclusion 4) | 22.7 | 17.7 | – | – | – | –
18 | GUCCGGCAUGUAGGAUAUGGAUCCGAUUAGGAUUUAGAAGGACAUGAGGAUCACCCAUGUGCAUUUAAUUAGUCAUUACCGGAU [EXclNG1-LROPPY05] (Eterna round: R96, puzzle: Exclusion NG 1) | 17.4 | 17.9 | – | – | – | 13.6
19 | CAGUACUGAGGAUAUACAUGAGGAUCACCCAUGUGUUCCAGCUAGGAGACUAGCAUAUGUAGAAGGCAGUACUG [jl-ex3-4.03 salish99 mod] (Eterna round: R97, puzzle: Exclusion 3) | 338 | 326 | – | – | – | –
20 | GGUGGACAUGAGGAUCACCCAUGUGAGGAUAUCGGCUGGCUAGUGGCUGACGGCUGCUCGAGAAGGCGCAUUGU [Exclusion 1 V86] (puzzle: Exclusion 1) | – | – | – | 54.7 | – | –
21 | AUACCAUGCCGCCUAAUAGCUUUUUGCUCGUCUUAUAAAACAUGAGGAUCACCCAUGUAAAACUCGUGGCGUGACCC [Leorbixe] (puzzle: Sensor v3, turn-off variant 2) | – | – | 77 | 19.9 | 60.8 | –
22 | GCAGGAUAAGUGAGGAUAUACCUCUGGAUACAGAGGUAGAAGGUACAUGAGGAUCACCCAUGUCUAUAACCUGC [Fiskers BMX 4 - 80] (puzzle: Brourd's mod of Exclusion 4) | – | – | – | 12.9 | – | –
23 | AAAAGAAAACGAGGAUAUGCGCGUAACGUACAUCCUCUAGACAUGAGGAUCACCCAUGUAGCGCAGCAGAAGGCGUAAAAGAAA [Orises] (Eterna round: R96, puzzle: Exclusion NG 2) | 724 | 84.3 | – | – | – | 75
24 | UGCCAGAAAGGAUAUACAGCCCGGGCGUUCCUGCGAUAUAUACAUGAGGAUCACCCAUGUAGAAGGUUCGGCGG [EX2 C.12] (Eterna round: R97, puzzle: Exclusion 2) | 33.1 | 28.5 | – | – | – | –
25 | UAUAUAUAGUAAGGAUAUGUAAUUAUUUUAUAAACAGAAGGUACUGACAUGAGGAUCACCCAUGUUUUAGUGUGGGCAUGUAGA [JMF's solution 5] (Eterna round: R96, puzzle: Exclusion NG 1) | – | – | – | – | – | 65.7
